Measured values reported in patent publication US20230080534A1 (SHANGHAI BIOTROY BIOTECHNIQUE, published 2023).
No end group written: not given here.

T1: human SEMG2 full-length protein (human, UniProt Q02383 24-582, limits assumed)
T1 construct: also called SEMG2 protein; semenogelin 2
T1 sequence: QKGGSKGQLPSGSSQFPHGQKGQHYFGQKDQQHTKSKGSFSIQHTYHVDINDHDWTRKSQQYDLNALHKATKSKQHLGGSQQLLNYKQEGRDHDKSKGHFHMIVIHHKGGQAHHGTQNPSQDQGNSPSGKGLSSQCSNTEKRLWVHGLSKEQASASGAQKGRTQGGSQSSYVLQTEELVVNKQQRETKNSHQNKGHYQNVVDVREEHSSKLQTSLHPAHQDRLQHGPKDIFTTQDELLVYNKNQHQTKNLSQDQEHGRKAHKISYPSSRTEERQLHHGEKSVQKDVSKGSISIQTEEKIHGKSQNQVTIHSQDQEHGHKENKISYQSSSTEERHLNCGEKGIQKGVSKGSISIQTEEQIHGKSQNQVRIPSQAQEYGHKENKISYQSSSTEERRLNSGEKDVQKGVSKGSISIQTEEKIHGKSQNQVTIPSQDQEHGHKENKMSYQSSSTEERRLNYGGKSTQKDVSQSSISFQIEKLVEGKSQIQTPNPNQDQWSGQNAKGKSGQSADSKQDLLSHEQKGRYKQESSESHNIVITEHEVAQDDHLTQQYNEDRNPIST

T2: QIEKLVEGKAQIQ (not fully specified)
T2 construct: alanine at this position
T2 peptide: QIEKLVEGKAQIQ

T3: QIEKAVEGKSQIQ (not fully specified)
T3 construct: alanine at this position
T3 peptide: QIEKAVEGKSQIQ

T4: AIEKLVEGKSQIQ (not fully specified)
T4 construct: member of the group m41; the text speaks of glycine substitution, the sheet prints alanine
T4 peptide: AIEKLVEGKSQIQ

T5: QIEKLVAGKSQIQ (not fully specified)
T5 construct: member of the group m41; the text speaks of glycine substitution, the sheet prints alanine
T5 peptide: QIEKLVAGKSQIQ

T6: QIEKLVEGKSAIQ (not fully specified)
T6 construct: alanine at this position
T6 peptide: QIEKLVEGKSAIQ

T7: QIAKLVEGKSQIQ (not fully specified)
T7 construct: member of the group m41; the text speaks of glycine substitution, the sheet prints alanine
T7 peptide: QIAKLVEGKSQIQ

T8: SEMG2(497-509) polypeptide QIEKLVEGKSQIQ (human)
T8 peptide: QIEKLVEGKSQIQ

T9: QIEKLVEGASQIQ (not fully specified)
T9 construct: member of the group m41; the text speaks of glycine substitution, the sheet prints alanine
T9 peptide: QIEKLVEGASQIQ

T10: SEMG2(354-403) fragment (human)
T10 peptide: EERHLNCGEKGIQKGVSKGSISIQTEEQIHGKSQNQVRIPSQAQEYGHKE

T11: QIEKLVEAKSQIQ
T11 construct: member of the group m41; position 504 is glycine in SEMG2 and the sheet prints alanine there
T11 peptide: QIEKLVEAKSQIQ

T12: QIEKLVEGKSQIA (not fully specified)
T12 construct: alanine at this position
T12 peptide: QIEKLVEGKSQIA

T13: QIEKLVEGKSQAQ (not fully specified)
T13 construct: member of the group m41; the text speaks of glycine substitution, the sheet prints alanine
T13 peptide: QIEKLVEGKSQAQ

T14: SEMG2(563-574) fragment (human)
T14 peptide: VAQDDHLTQQYN

T15: QAEKLVEGKSQIQ (not fully specified)
T15 construct: member of the group m41; the text speaks of glycine substitution, the sheet prints alanine
T15 peptide: QAEKLVEGKSQIQ

T16: SEMG2(442-453) fragment (human)
T16 peptide: IHGKSQNQVTIP

T17: QIEKLAEGKSQIQ (not fully specified)
T17 construct: member of the group m41; the text speaks of glycine substitution, the sheet prints alanine
T17 peptide: QIEKLAEGKSQIQ

T18: QIEALVEGKSQIQ (not fully specified)
T18 construct: member of the group m41; the text speaks of glycine substitution, the sheet prints alanine
T18 peptide: QIEALVEGKSQIQ

T19: BSA-conjugated human SEMG2 (497-509) polypeptide (human, also: coupled to BSA, site not given here)
T19 peptide: QIEKLVEGKSQIQ


What was measured:
[1] = molecular target: T1, human SEMG2 full-length protein; assay: ELISA, immobilized antigen SEMG2 (1-582)
From the text: (§1) To clearly distinguish the binding epitopes of blocking antibodies (i.e., antibodies that can inhibit the binding between SEMG2 and CD27) and non-blocking antibodies, a corresponding ELISA analysis method was established. […] Anti-mouse or anti-rabbit secondary antibodies were then used to detect the corresponding bound antibodies.

QIEKLVEGKAQIQ = molecular target: T2, QIEKLVEGKAQIQ; assay: ELISA, immobilized peptide QIEKLVEGKAQIQ
From the text: (§2) FIG. 20 depicts the value detected by ELISA, i.e., OD₄₅₀ absorbance. […] This experiment is used to determine the precise amino acid epitopes that different monoclonal antibodies bind to, and the relative importance of each amino acid to the binding antibody.

QIEKAVEGKSQIQ = molecular target: T3, QIEKAVEGKSQIQ; assay: ELISA, immobilized peptide QIEKAVEGKSQIQ
From the text: as §2

AIEKLVEGKSQIQ = molecular target: T4, AIEKLVEGKSQIQ; assay: ELISA, immobilized peptide AIEKLVEGKSQIQ
From the text: as §2

QIEKLVAGKSQIQ = molecular target: T5, QIEKLVAGKSQIQ; assay: ELISA, immobilized peptide QIEKLVAGKSQIQ
From the text: as §2
To further precisely define the exact epitopes (specific to the level of single amino acid) to which blocking antibodies MM02, MM05, MM07, MM08, MM13, MM14 bind, corresponding ELISA analysis method was established. […] Anti-mouse or anti-rabbit secondary antibodies were then used to detect the corresponding bound antibodies.

QIEKLVEGKSAIQ = molecular target: T6, QIEKLVEGKSAIQ; assay: ELISA, immobilized peptide QIEKLVEGKSAIQ
From the text: as §2

[2] = molecular target: T1, human SEMG2 full-length protein; assay: biolayer interferometry (ForteBio Blitz or Gator)
Procedure: The equilibrium dissociation constant (KD) of the antibody of the present invention binding to human SEMG2 was determined by biolayer interferometry (ForteBio Bltz or Gator instrument). […] 100 μl of SD buffer, antibody and SEMG2 were added to a 96-well black polystyrene half area microplate, respectively. Select the sensor location based on the sample location layout. KD values were analyzed using molecular interaction analysis software. In the experiments of the assays, the affinity constants of murine monoclonal antibodies and human antibodies H88-67, H88-93 and H88-96 are shown in Table 8, and the affinity and dissociation curves of SEMG2 and corresponding proteins are shown in FIG. 25.

QIAKLVEGKSQIQ = molecular target: T7, QIAKLVEGKSQIQ; assay: ELISA, immobilized peptide QIAKLVEGKSQIQ
[3] = molecular target: T8, SEMG2(497-509) polypeptide QIEKLVEGKSQIQ; assay: ELISA, immobilized antigen SEMG2 (497-509)
From the text: as §1

QIEKLVEGASQIQ = molecular target: T9, QIEKLVEGASQIQ; assay: ELISA, immobilized peptide QIEKLVEGASQIQ
From the text: as §2

SEMG2(354-403) fragment = molecular target: T10, SEMG2(354-403) fragment; assay: ELISA, immobilized antigen SEMG2 (354-403)
From the text: as §1

QIEKLVEAKSQIQ = molecular target: T11, QIEKLVEAKSQIQ; assay: ELISA, immobilized peptide QIEKLVEAKSQIQ
From the text: as §2

[4] = molecular target: T1, human SEMG2 full-length protein; assay: ELISA, plate coated with SEMG2 protein, anti-mouse secondary antibody; the EC50 table prints no unit, the axis is log (antibody concentration, nM)
QIEKLVEGKSQIA = molecular target: T12, QIEKLVEGKSQIA; assay: ELISA, immobilized peptide QIEKLVEGKSQIA
From the text: as §2

QIEKLVEGKSQAQ = molecular target: T13, QIEKLVEGKSQAQ; assay: ELISA, immobilized peptide QIEKLVEGKSQAQ
From the text: as §2

SEMG2(563-574) fragment = molecular target: T14, SEMG2(563-574) fragment; assay: ELISA, immobilized antigen SEMG2 (563-574)
From the text: as §1

QAEKLVEGKSQIQ = molecular target: T15, QAEKLVEGKSQIQ; assay: ELISA, immobilized peptide QAEKLVEGKSQIQ
From the text: as §2

SEMG2(442-453) fragment = molecular target: T16, SEMG2(442-453) fragment; assay: ELISA, immobilized antigen SEMG2 (442-453)
From the text: as §1

QIEKLAEGKSQIQ = molecular target: T17, QIEKLAEGKSQIQ; assay: ELISA, immobilized peptide QIEKLAEGKSQIQ
From the text: as §2

QIEALVEGKSQIQ = molecular target: T18, QIEALVEGKSQIQ; assay: ELISA, immobilized peptide QIEALVEGKSQIQ
From the text: as §2

[5] = molecular target: T8, SEMG2(497-509) polypeptide QIEKLVEGKSQIQ; assay: ELISA, immobilized peptide QIEKLVEGKSQIQ
From the text: as §2

[6] = molecular target: T1, human SEMG2 full-length protein; assay: ELISA on SEMG2; the EC50 table prints no unit, the axis is log (antibody concentration, nM)
[7] = molecular target: T19, BSA-conjugated human SEMG2 (497-509) …; assay: ELISA on BSA-S2 (497-509); curve without upper plateau; the EC50 table prints no unit, the axis is log (antibody concentration, nM)
[8] = molecular target: T1, human SEMG2 full-length protein; assay: ELISA (FIG. 21B-D)
[9] = molecular target: T19, BSA-conjugated human SEMG2 (497-509) …; assay: ELISA (FIG. 21B-D)

Binder	A450 absorbance [1]	OD450 absorbance (QIEKLVEGKAQIQ)	OD450 absorbance (QIEKAVEGKSQIQ)	OD450 absorbance (AIEKLVEGKSQIQ)	OD450 absorbance (QIEKLVAGKSQIQ)	OD450 absorbance (QIEKLVEGKSAIQ)	Kd [2]	OD450 absorbance (QIAKLVEGKSQIQ)	A450 absorbance [3]	OD450 absorbance (QIEKLVEGASQIQ)	A450 absorbance (SEMG2(354-403) fragment)	binding result (SEMG2(354-403) fragment)	OD450 absorbance (QIEKLVEAKSQIQ)	EC50 [4]	OD450 absorbance (QIEKLVEGKSQIA)	OD450 absorbance (QIEKLVEGKSQAQ)	A450 absorbance (SEMG2(563-574) fragment)	binding result (SEMG2(563-574) fragment)	OD450 absorbance (QAEKLVEGKSQIQ)	A450 absorbance (SEMG2(442-453) fragment)	other results
MM13 (antibody, V domains shown) VH: EVQLQQSGAELVRSGASVKLSCTASGFNIKDYYMHWMKQRPEQGLEWIGWIDPENGDNEYAPKFQGKATMTADTSSNTAYLQLSSLTSEDTAVYYCNVGGAHYWGQGTTLTVSS VL: not shown	1.13	0.211	0.049	0.48	0.738	1.19	0.693 nM	0.67	1.14	0.818	0.001	no binding	0.842	0.382 nM	1.25	0.699	0.01	no binding	0.467	0.008	binding result (SEMG2(442-453) fragment): no binding; OD450 absorbance (QIEKLAEGKSQIQ): 0.658; OD450 absorbance (QIEALVEGKSQIQ): 0.712; OD450 absorbance [5]: 1.23
MM08 (antibody, IgG1, V domains shown) VH: QVQLQQPGAELVRPGASVKLSCKSSDYTFTRYWMNWVKQRPGQGLEWIGMIDPSDSETHHNQMFKDKATLTVDKSSSTAYMQLSSLTSEDSAVYFCARYLGGKEGSFDYWGQGTTLTVSS VL: DIVLTQSPSSLAVSAGERVTMSCKSSQSLFNSRTRKNYLAWYQQKPGQSPKLLLYWASTRESGVPDRFTGSGSGTDFTLTISSVKTEDLAVYYCKQSYELPWTFGGGTKLEMKR	1.13	0.023	0.213	0.942	0.566	1.22	2.34 nM	0.544	1.14	0.939	0.012	no binding	0.824	0.418 nM	1.19	0.798	0.001	no binding	0.671	0.008	binding result (SEMG2(442-453) fragment): no binding; OD450 absorbance (QIEKLAEGKSQIQ): 0.509; OD450 absorbance (QIEALVEGKSQIQ): 0.789; OD450 absorbance [5]: 1.26
67-3-67-6 (antibody, V domains shown) VH: QVQLLESGGGVVQPGRSLRLSCAASGFTFSSYAMHWVRQASGKGLEWVAVISYDGSNKYYADSVKGRFTISRDNSKNTLYLQMNSLRAEDTAVYYCARMDNHGSPDYWGQGTLVTVSS VL: not shown																					EC50 [6]: 0.313 nM; EC50 [7]: 12.6 nM; fold higher affinity than the parent antibody (H88-67) [8]: > 10 fold; fold higher affinity than the parent antibody (H88-67) [9]: > 10 fold
